Article PMC11251093 (iScience, 2024)

Biological target: SARS-CoV S-6P (SARS-CoV, strain , UniProt P59594, stabilised)
Assay: SPR

B1: 6D6 (antibody, V domains shown)
VH: EVQLQQSGAELVKPGASVKLSCTTSGFNIIDTYMHWVKQRPEEGLEWIGGIDPVNGNSEYDPKFQDKATITADTSSNTAYLHLSRLTSEDTAVYYCASAHYYGSSSSFPYWGQGTDLVTVS
VL: DIVMTQSQKFMSTSVGDRVSVTCKASQNVGTHVAWYQQKPGQSPKALIYSASYRYSGVPDRFTGSGVGTDFTLTITNVQSEDLAEYFCQQYNSYFTFGSGTKLEIK
binding result: binds
